Data from patent publication US20080312141 (published 2008).
No end group written: not given here.

T1: cathepsin G (human, UniProt P08311)
T1 chain: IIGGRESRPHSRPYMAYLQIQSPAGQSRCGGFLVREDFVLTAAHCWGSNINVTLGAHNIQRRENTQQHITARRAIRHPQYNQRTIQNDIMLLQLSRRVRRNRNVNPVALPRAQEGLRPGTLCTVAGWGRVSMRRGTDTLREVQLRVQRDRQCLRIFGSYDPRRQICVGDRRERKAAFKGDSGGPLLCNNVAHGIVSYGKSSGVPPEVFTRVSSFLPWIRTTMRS

B1: GST-D-1 (peptide)
chain: CLSTCAQSCRISC
modifications: not fully specified (bridges); cysteine pairing not given here; also: GST fusion protein

How the values were obtained:
hK2 = hK2 (human, UniProt P20151); assay: other, IFMA
Chain of hK2 (P20151 25-261): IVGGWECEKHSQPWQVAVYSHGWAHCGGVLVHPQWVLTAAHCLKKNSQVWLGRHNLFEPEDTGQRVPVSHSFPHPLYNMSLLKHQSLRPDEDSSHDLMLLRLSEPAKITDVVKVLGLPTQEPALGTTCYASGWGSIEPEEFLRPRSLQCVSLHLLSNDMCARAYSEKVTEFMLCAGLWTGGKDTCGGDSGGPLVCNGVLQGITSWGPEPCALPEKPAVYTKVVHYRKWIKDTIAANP

trypsin = assay: other, IFMA
cathepsin G = target: T1, cathepsin G; assay: other, IFMA
PSA [1] = target: T2, PSA (human, UniProt P07288); assay: competition, IFMA with free PSA
T2 sequence (P07288 25-261): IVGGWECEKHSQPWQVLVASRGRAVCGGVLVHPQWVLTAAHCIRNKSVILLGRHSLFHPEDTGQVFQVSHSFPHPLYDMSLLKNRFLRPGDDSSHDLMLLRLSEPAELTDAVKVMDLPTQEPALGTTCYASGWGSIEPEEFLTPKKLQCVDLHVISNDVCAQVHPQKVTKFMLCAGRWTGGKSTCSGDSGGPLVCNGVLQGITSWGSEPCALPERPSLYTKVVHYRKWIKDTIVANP

PSA [2] = target: T2, PSA; assay: other, IFMA

Binder | binding result (hK2) | binding result (trypsin) | binding result (cathepsin G) | IC50 (PSA [1]) [nM] | binding result (PSA [2])
CVAYCIEHHCWTC [GST-C-4] | no binding | no binding | no binding | 0.7 | –
B1 | – | – | – | – | no binding
